Test results published in US11708423B2, “Chimeric engulfment receptor molecules and methods of use” (CERO THERAPEUTICS, INC., priority 2017, dated 2023).

B1: CER126: Tim4 binding and transmembrane domains, TLR2 primary and TRAF2 secondary signaling domains; SEQ ID NO:174 (protein)
chain: MSKGLLLLWLVTELWWLYLTPAASEDTIIGFLGQPVTLPCHYLSWSQSRNSMCWGKGSCPNSKCNAELLRTDGTRIISRKSTKYTLLGKVQFGEVSLTISNTNRGDSGVYCCRIEVPGWFNDVKKNVRLELRRATTTKKPTTTTRPTTTPYVTTTTPELLPTTVMTTSVLPTTTPPQTLATTAFSTAVTTCPSTTPGSFSQETTKGSAFTTESETLPASNHSQRSMMTISTDIAVLRPTGSNPGILPSTSQLTTQKTTLTTSESLQKTTKSHQINSRQTILIIACCVGFVLMVLLFLAFLHRFHGLWYMKMMWAWLQAKRKPRKAPSRNICYDAFVSYSERDAYWVENLMVQELENFNPPFKLCLHKRDFIPGKWIIDNIIDSIEKSHKTVFVLSENFVKSEWCKYELDFSHFRLFDENNDAAILILLEPIEKKAIPQRFCKLRKIMNTKTYLEWPMDEAQREGFWVNLRAAIKSMAAASVTPPGSLELLQPGFSKTLLGTKLEAKYLCSACRNVLRRPFQAQCGHRYCSFCLASILSSGPQNCAACVHEGIYEEGISILESSSAFPDNAARREVESLPAVCPSDGCTWKGTLKEYESCHEGRCPLMLTECPACKGLVRLGEKERHLEHECPERSLSCRHCRAPCCGADVKAHHEVCPKFPLTCDGCGKKKIPREKFQDHVKTCGKCRVPCRFHAIGCLETVEGEKQQEHEVQWLREHLAMLLSSVLEAKPLLGDQSHAGSELLQRCESLEKKTATFENIVCVLNREVERVAMTAEAC
modifications: CER126 protein
B2: CER122: Tim4 binding and transmembrane domains, TLR2 primary and DAP12 secondary signaling domains; SEQ ID NO:149 (protein)
chain: MSKGLLLLWLVTELWWLYLTPAASEDTIIGFLGQPVTLPCHYLSWSQSRNSMCWGKGSCPNSKCNAELLRTDGTRIISRKSTKYTLLGKVQFGEVSLTISNTNRGDSGVYCCRIEVPGWFNDVKKNVRLELRRATTTKKPTTTTRPTTTPYVTTTTPELLPTTVMTTSVLPTTTPPQTLATTAFSTAVTTCPSTTPGSFSQETTKGSAFTTESETLPASNHSQRSMMTISTDIAVLRPTGSNPGILPSTSQLTTQKTTLTTSESLQKTTKSHQINSRQTILIIACCVGFVLMVLLFLAFLHRFHGLWYMKMMWAWLQAKRKPRKAPSRNICYDAFVSYSERDAYWVENLMVQELENFNPPFKLCLHKRDFIPGKWIIDNIIDSIEKSHKTVFVLSENFVKSEWCKYELDFSHFRLFDENNDAAILILLEPIEKKAIPQRFCKLRKIMNTKTYLEWPMDEAQREGFWVNLRAAIKSYFLGRLVPRGRGAAEAATRKQRITETESPYQELQGQRSDVYSDLNTQRPYYK
modifications: CER122 protein

Columns and labels:
Assay type in all cases: cell-based
[1] = system: H1975 lung adenocarcinoma cells; assay: LDH assay, H1975 cells, 48 hours co-culture with 1 μM Osimeritinib; details: E:T 1:1, 48 hours, CD4+ T cells
In short: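 H1975 EGFR-mutant cells were co-cultured 48 h with CER-expressing or mock-transduced CD4+ T cells at 1:1 effector:target, plus 1 μM osimertinib. After T cells were washed away, viable H1975 cells were quantified by colorimetric LDH assay in triplicate, expressed as % of control.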

ALK+A549 cells = assay: Phagocytosis of ALK inhibitor treated A549 ALK+ cells by CER T cells (fluorescent microscopy)
Source text: An ELM4-ALK translocation was introduced into A549 cells. […] CD4 T cells are modified to express CER104 or CER117 and labeled with CELLTRACE Violet. CER117 has a polypeptide sequence set forth in SEQ ID NO:144 and comprises a Tim4 binding domain, a Tim4 transmembrane domain, and an engulfment signaling domain comprising a primary engulfment signaling domain comprising a TLR8 signaling domain and a secondary engulfment signaling domain comprising a TRAF6 signaling domain. The ALK+A549 cells were then co-cultured with CER104- or CER117-expressing CD4+ T cells or Mock-transduced (vector only) T cells for 12 hours and images were obtained by fluorescent microscopy at 40× magnification (FIGS. 62A-E). White arrows indicate exemplary phagocytic events (pH rodo red cell targets within CELLTRACE Violet labeled CD4+ T cells).
CER123- and CER126-transduced CD4+ and CD8+ T cells were labeled with CELLTRACE Violet and co-cultured with the A549 ALK-positive cells. Co-cultured cells were imaged by fluorescent microscopy at 63× magnification after 12 hours (FIGS. 63A-F). White arrows indicate exemplary phagocytic events (pHrodo red targets within CELLTRACE Violet-labeled CD4 T cells).
Phagocytosis of Alectinib-treated ALK+A549 cells by CER-expressing T cells was also quantified. […] Bar graph in FIG. 64A represents quantification of percentage phagocytosis calculated as ((number of phagocytic target events)/(total number of effector cells))*100. Events were calculated from fluorescent 3×3 stitched images at 40×resolution after 12 hours of co-culture. Bar graph in FIG. 64B represents quantification of adjusted phagocytic index calculated as (median area ratio of target events in effector cells*phagocytosis). Events calculated from fluorescent 3×3 stitched images at 40×resolution after 12 hours of co-culture.
CER21−, CER27−, CER30−, CER108−, CER110−, CER112−, CER120−, CER123−, CER124−, CER126−, CER127−, or CER104-transduced CD4+ T cells were co-cultured with Alectinib-treated A549 cells at a 1:1 ratio for 12 hours. Phagocytic events were calculated from 3×3 stitched fluorescent microscopy images at 40X resolution. […] Images were obtained after 12 hours of co-culture. Yellow triangles indicate exemplary phagocytic events (pHrodo red targets within CELLTRACE violet labeled CD4+ T cells).
A time course study of phagocytic uptake of tumor cells by CER-transduced T cells was performed. CD4+ T cells were transduced with a lentiviral vector comprising CER122 nucleic acid. Mock-transduced (vector only) CD4+ T cells were used as control. CER122-transduced T cells were labeled with CELLTRACE violet and co-cultured with pHrodo red labeled A549 ALK+ lung adenocarcinoma cells. Fluorescent microscopy images were obtained at 4, 8, and 16 hours co-culture (FIG. 72C), and % phagocytosis (FIG. 72A) and phagocytic index (FIG. 72B) were calculated.

A549 ALK+ cells = assay: MTT viability and bright field microscopy of A549 ALK+ cells with CER T cells and ALK inhibitor; details: for in vitro growth/viability of A549 ALK+ cells (MTT): Alectinib or Crizotinib 250 nM-10 μM, E:T 2:1 and 5:1
Source text: An […] translocation was introduced into A549 cells. […] CER104 has a polypeptide sequence set forth in SEQ ID NO:133 and comprises a Tim4 binding domain, Tim4 transmembrane domain, and an engulfment signaling domain comprising a primary engulfment signaling domain comprising a TLR8 signaling domain and a secondary engulfment signaling domain comprising a DAP12 signaling domain. CER122 has a polypeptide sequence set forth in SEQ ID NO:149 and comprises a Tim4 binding domain, Tim4 transmembrane domain, and an engulfment signaling domain comprising a primary engulfment signaling domain comprising a TLR2 signaling domain and a secondary engulfment signaling domain comprising a DAP12 signaling domain. Effector:target (E:T) cell ratio for co-culture was 2:1 or 5:1. […] Cell viability experiments were performed in triplicates and presented as % of control. Best-fit curves were generated from raw data using linear regression models.
CER21−, CER108−, CER104−, and CER129-transduced CD4+ T cells were tested for their ability to kill A549 ALK+ cells in the presence of ALK inhibitor. CD4+ T cells were transduced with a lentiviral vector comprising a CER21, CER108, CER104, CER129, CER27, CER120, CER122, CER123, CER124, or CER126 nucleic acid. […] After 48 hours of co-culture, T cells were washed away and the number of viable A549 ALK+ cells was quantified using a calorimetric MTT assay (FIGS. 67A-B). Cell viability experiments were performed in triplicates and presented as % of control. Bright field microscopy images were also obtained from A549 ALK+co-culture experiments. […] Arrow indicates cluster of dead A549 ALK+ cells surrounded by phagocytic CER104+ T cells. […]

Molecule | killing of H1975 cells (LDH) [1] | phagocytic elimination of ALK+A549 cells (ALK+A549 cells; 2.5 μM Alectinib, 12 hours) | bright field microscopy of A549 ALK+ co-culture (A549 ALK+ cells; Alectinib 3.7 μM, 48 hours, vs mock-transduced T cells) | phagocytic uptake of A549 ALK+ cells, time course (ALK+A549 cells; CD4+ T cells, 4, 8, and 16 hours co-culture) | in vitro growth/viability of A549 ALK+ cells (MTT) (A549 ALK+ cells; 48 hours) | in vitro growth/viability of A549 ALK+ cells (MTT) (A549 ALK+ cells; 72 hours)
B1 | synergistic killing of H1975 lung adenocarcinoma cells upon EGFR inhibition | phagocytic elimination of ALK+A549 cells | cluster of dead A549 ALK+ cells surrounded by phagocytic CER126^+ T cells | – | – | –
B2 | synergistic killing of H1975 lung adenocarcinoma cells upon EGFR inhibition | – | – | phagocytic events by CER122-transduced T cells | synergistically suppress in vitro growth of NSCLC cells harboring ALK rearrangements | synergistically suppress in vitro growth of NSCLC cells harboring ALK rearrangements
